From WO2021160116A1 (dated 2021)

Target: T1, human FcRn-β2M complex (human FcRn extracellular region with His-tagged human β2M) (human, UniProt P55899 24-297; P61769 21-119, randomly biotinylated in the ELISA (biotin-hFcRn))
T1 construct: Purified by Ni-Sepharose and Superdex200; Used biotinylated in the ELISA and as analyte in Biacore; also called FcRn antigen; hFcRn; not shown: His tag
Assay: ELISA, biotin-hFcRn on NeutrAvidin plate, pH 6.0

T1 sequence (P55899 24-297 limits assumed, chain 1 of 2): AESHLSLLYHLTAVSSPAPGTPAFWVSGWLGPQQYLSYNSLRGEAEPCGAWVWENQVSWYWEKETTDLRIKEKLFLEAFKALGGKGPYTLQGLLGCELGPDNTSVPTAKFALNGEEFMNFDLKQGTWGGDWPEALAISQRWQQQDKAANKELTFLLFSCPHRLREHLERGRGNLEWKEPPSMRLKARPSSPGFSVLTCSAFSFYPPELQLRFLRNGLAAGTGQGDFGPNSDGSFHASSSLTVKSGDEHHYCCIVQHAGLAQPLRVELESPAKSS
T1 sequence (P61769 21-119 limits assumed, chain 2 of 2): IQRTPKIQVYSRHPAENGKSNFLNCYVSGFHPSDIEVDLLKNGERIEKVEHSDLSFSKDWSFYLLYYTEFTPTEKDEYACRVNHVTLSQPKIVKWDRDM

B1: Argx-113 (other)
chain: DKTHTCPPCPAPELLGGPSVFLFPPKPKDTLYITREPEVTCVVVDVSHEDPEVKFNWYVDGVEVHNAKTKPREEQYNSTYRVVSVLTVLHQDWLNGKEYKCKVSNKALPAPIEKTISKAKGQPREPQVYTLPPSRDELTKNQVSLTCLVKGFYPSDIAVEWESNGQPENNYKTTPPVLDSDGSFFLYSKLTVDKSRWQQGNVFSCSVMHEALKFHYTQKSLSLSPGK
EC50: 0.9 µg/mL
